Our source for the rate constant of single turnover GTP hydrolysis by AtGPA1 with 30 nM RGS1box and GAP activity as ΔK per molecule, single turnover GTPase assay (min^−1 pmol^−1) values is paper PMC5594927.

Experiment [1] addresses T1, AtGPA1, Arabidopsis Gα subunit, His-tagged (Arabidopsis thaliana) (UniProt P18064).
T1 sequence: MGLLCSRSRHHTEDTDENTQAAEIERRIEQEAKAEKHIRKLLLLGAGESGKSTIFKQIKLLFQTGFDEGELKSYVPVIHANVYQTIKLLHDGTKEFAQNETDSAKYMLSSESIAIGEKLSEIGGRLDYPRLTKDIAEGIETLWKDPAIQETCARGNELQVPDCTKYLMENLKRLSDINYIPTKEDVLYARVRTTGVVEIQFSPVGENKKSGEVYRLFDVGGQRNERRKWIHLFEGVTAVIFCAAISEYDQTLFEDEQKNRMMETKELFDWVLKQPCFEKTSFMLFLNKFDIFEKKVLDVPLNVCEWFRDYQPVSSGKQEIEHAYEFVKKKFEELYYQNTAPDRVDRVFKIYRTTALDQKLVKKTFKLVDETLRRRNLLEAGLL

In experiment [2] the target is T1, AtGPA1, Arabidopsis Gα subunit, His-tagged (Arabidopsis thaliana). This is another data set of the same source.

B1: C-terminal domain of AtRGS1 (residues 284–459), His-tagged (domain or fragment)
chain: KEEFRPVDPNEPLDKLLLNKRFRHSFMEFADSCYAGETLHFFEEVYEHGKIPEDDSIRRIYMARHIMEKFIVAGAEMELNLSHKTRQEILTTQDLTHTDLFKNALNEVMQLIKMNLVRDYWSSIYFIKFKEEESCHEAMHKEGYSFSSPRLSSVQGSDDPFYQEHMSKSSRCSSPG
B1: the rate constant of single turnover GTP hydrolysis by AtGPA1 with 30 nM RGS1box in experiment [1] was 0.18 min⁻¹. Further, in experiment [2], the GAP activity as ΔK per molecule, single turnover GTPase assay (min^−1 pmol^−1) turned out to be 0.0378.
